Patent publication US20230192878A1, “METHODS, THERAPIES AND USES FOR TREATING CANCER” (PFIZER INC., priority 2020, published 2023)

Experiment: First in human Phase 1 clinical study: safety (CRS, DLT)
Assay type: in vivo
Excerpt: This Example illustrates an ongoing Phase 1 open-label, multicenter clinical study of PF-06863135 (BCMAxCD3 bispecific) as monotherapy and in combination with sasanlimab, lenalidomide or pomalidomide, in adult patients with advanced multiple myeloma who have relapsed from or are refractory to standard therapy. The study has been registered on ClinicalTrials.gov with identifier NCT03269136 and was first posted August 2017. Study results for Part 1 of the trial and additional arms for the study are described in this Example.
Part 1 of the Study is the […] single agent dose escalation arm at the dose levels of 0.1, 0.3, 1, 3, 10, 30, and 50 μg/kg Q1W by intravenous (IV) administration, and at the dose levels of 80, 130, 215, 360, 600 and 1000 μg/kg Q1W by subcutaneous (SC) administration. Upon reaching maximum tolerated dose (MTD)/maximum administered dose (MAD), patients can be treated at a dose level selected from the foregoing dose levels described in this paragraph, and below the MTD/MAD fora Q2W administration, both IV and SC, to further support the recommended phase 2 dose (RP2D) decision. For the study, dose limiting toxicity observation period is set at 21 days for Q1W dosing and 28 days for Q2W dosing. The treatment cycle, aka cycle, for Q1W dosing would be 3 weeks, and for Q2W dosing would be four weeks.
Clinical Outcome of Part 1 of the Study. As of 15 Apr. 2020, a total of 23 patients were enrolled in Part 1 of the study and had been treated with PF-06863135 administered intravenously (IV) at 0.1 (N=2), 0.3 (N=3), 1 (N=2), 3 (N=3), 10 (N=2), 30 (N=5), and 50 (N=6) μg/kg. As of Aug. 21, 2020, a total of 30 patients were enrolled in Part 1 of the study and had been treated with PF-06863135 administered subcutaneously (SC) at 80 (N=6), 130 (N=4), 215 (N=4), 360 (N=4), 600 (N=6) and 1000 (N=6) μg/kg. Safety and efficacy data were available for in 23 IV and 30 SC treated patients per IMWG (International Myeloma Working Group) criteria.
Part 1.1 of the Study is an alternative maintenance dose escalation arm for single agent PF-06863135. If excessive toxicity occurs or the maximum tolerated dose (MTD)/maximum administered dose (MAD) is reached at a dose level that is earlier than desired in Part 1 of the study described above, a priming dose will be administered one week prior to the day 1 cycle 1 administration of the dose (maintenance dose) at this dose level and for all subsequent dose levels in the dose escalation that may be initiated for Part 1.1. The priming dosing will be at a lower dose level than the maintenance dose.

[1] = 600 μg/kg priming, 1000 μg/kg Q1W or Q2W SC, N = 20

Substance: PF-06863135: heterodimeric humanized full-length bispecific antibody with one BCMA binding arm and one CD3 binding arm
- CRS observed, patient(s) (10 μg/kg IV cohort): 1 (50.0%)
- CRS observed, patient(s) (30 μg/kg IV cohort): 4 (80.0%)
- Patients who experienced dose limiting toxicities (DLTs) (30 μg/kg IV cohort): 1 patient
- Patients in whom CRS also occurred after later doses (second to fourth) (50 μg/kg IV): 3 patients
- CRS observed, patient(s) (50 μg/kg IV cohort): 6 (100.0%)
- Patients who experienced dose limiting toxicities (DLTs) (50 μg/kg IV cohort): 1 patient
- CRS Grade 1 (patients) (80 μg/kg Q1W SC, N = 6): 2
- CRS Grade 2 (patients) (80 μg/kg Q1W SC, N = 6): 1
- CRS Mean duration (80 μg/kg Q1W SC, N = 6): 1 days
- Patients with CRS (80 μg/kg Q1W SC, N = 6): 3 (50%)
- CRS Grade 1 (patients) (130 μg/kg Q1W SC, N = 4): 2
- CRS Grade 2 (patients) (130 μg/kg Q1W SC, N = 4): 0
- CRS Mean duration (130 μg/kg Q1W SC, N = 4): 3 days
- Patients with CRS (130 μg/kg Q1W SC, N = 4): 2 (50%)
- CRS Grade 1 (patients) (215 μg/kg Q1W SC, N = 4): 3
- CRS Grade 2 (patients) (215 μg/kg Q1W SC, N = 4): 0
- CRS Mean duration (215 μg/kg Q1W SC, N = 4): 3 days
- Patients with CRS (215 μg/kg Q1W SC, N = 4): 3 (75%)
- CRS Grade 1 (patients) (360 μg/kg Q1W SC, N = 4): 2
- CRS Grade 2 (patients) (360 μg/kg Q1W SC, N = 4): 1
- CRS Mean duration (360 μg/kg Q1W SC, N = 4): 1.7 days
- Patients with CRS (360 μg/kg Q1W SC, N = 4): 3 (75%)
- CRS Grade 1 (patients) (600 μg/kg Q1W SC, N = 6): 4
- CRS Grade 2 (patients) (600 μg/kg Q1W SC, N = 6): 2
- CRS Mean duration (600 μg/kg Q1W SC, N = 6): 1.7 days
- Patients with CRS (600 μg/kg Q1W SC, N = 6): 6 (100%)
- Decrease of medium duration of CRS by introducing priming dose (600 μg/kg priming then 1000 μg/kg vs 1000 μg/kg without priming, SC): 50%
- CRS Grade 1 (patients) [1]: 11
- CRS Grade 2 (patients) [1]: 9
- CRS Mean duration [1]: 2 days
- Patients with CRS [1]: 20 (100%)
- CRS Grade 1 (patients) (1000 μg/kg Q1W SC, N = 6): 5
- CRS Grade 2 (patients) (1000 μg/kg Q1W SC, N = 6): 1
- CRS Mean duration (1000 μg/kg Q1W SC, N = 6): 4 days
- Patients with CRS (1000 μg/kg Q1W SC, N = 6): 6 (100%)
- Patients who experienced dose limiting toxicities (DLTs) (IV cohorts, 23 patients, febrile neutropenia Grade 3 and electrocardiogram QT prolongation Grade 1): 2 patients
- CRS onset after dosing (IV cohorts, each of the 11 patients with CRS): ≤ 2 days
- Impact of dose frequency (Q1W v. Q2W) on the CRS (Part 1.1, 600 μg/kg priming, 1000 μg/kg SC): no impact
- Patients who experienced dose limiting toxicities (DLTs) (SC cohorts (80-1000 μg/kg)): No patients
- CRS onset after dosing (SC cohorts, primarily): ≤ 2 days
- Patients who experienced maximum Grade 1 CRS (all IV treated patients): 6 (26.1%)
- Patients who experienced maximum Grade 2 CRS (all IV treated patients): 5 (21.7%)
- Patients who experienced maximum Grade 1 CRS (all SC treated patients): 18 (60.0%)
- Patients who experienced maximum Grade 2 CRS (all SC treated patients): 5 (16.7%)
- CRS severity in SC-treated vs IV-treated patients (despite higher overall dose exposure in SC-treated patients): less severe CRS
- Toxicities (highest dose levels of 600 and 1000 μg/kg SC): tolerable and manageable
